What was measured:
[1] = molecular target: the molecule itself; test: cross-linking
[2] = molecular target: the molecule itself; test: crystal structure

B1: MgtE ΔN T336C/L421C (TtMgtE 130-450, T336C/L421C) (domain or fragment, Thermus thermophilus, UniProt Q5SMG8 130-450, looked up)
chain: EEDEAGGLMTPEYVAVREGMTVEEVLRFLRRAAPDAETIYYIYVVDEKGRLKGVLSLRDLIVADPRTRVAEIMNPKVVYVRTDTDQEEVARLMADYDFTVLPVVDEEGRLVGIVTVDDVLDVLEAEATEDIHKLGAVDVPDLVYSEAGPVALWLARVRWLVILILTGMVTSSILQGFESVLEAVTALAFYVPVLLGTGGNTGNQSACLIIRALATRDLDLRDWRRVFLKEMGVGLLLGLTLSFLLVGKVYWDGHPLLLPVVGVSLVLIVFFANLVGAMLPFLLRRLGVDPACVSNPLVATLSDVTGLLIYLSVARLLLEAV
In the case of B1, the “stoichiometry N” value [1] is reported as 2.

B2: Thermus thermophilus MgtE transmembrane (TM) domain (TtMgtE 268-450) (domain or fragment, UniProt Q5SMG8 268-450, looked up)
chain: VPDLVYSEAGPVALWLARVRWLVILILTGMVTSSILQGFESVLEAVTALAFYVPVLLGTGGNTGNQSATLIIRALATRDLDLRDWRRVFLKEMGVGLLLGLTLSFLLVGKVYWDGHPLLLPVVGVSLVLIVFFANLVGAMLPFLLRRLGVDPALVSNPLVATLSDVTGLLIYLSVARLLLEAV
B2: binds [2].

Reference: PMC9708914 (iScience, 2022)
